Data from the DeepSol protein solubility set.

Assay: soluble on expression in E. coli; label from the status in PepcDB or PDB records

| Sequence | soluble on expression in E. coli |
| --- | --- |
| MSLSFDFSPDFNPLAARMRPASVEEYIGQSHLLGEGKPLRQALLAGKVHSMLLWGPPGTGKTTLAELVARYANAHVERISAVTSGVKEIRAAIEQAKNVAQSRGQRTLLFVDEVHRFNKSQQDAFLPFIEDGTVIFIGATTENPSFEVNNALLSRCRVYLIKRLEDDAIGQILAQANSDEARGLGKRGLLLKAELKSAIARLCDGDARKALNLLELMSDLLPDGGEYNLELLSEVAGHQAAGYDKNGDQYYDLISAVHKSIRGSAPDAALYWFCRILEGGGDPLYVARRLLAIASEDIGNADPNAMTVALNAWDCFHRVGPAEGERAIAQAVIYLASAPKSNAVYTAFKAARVLARETGNAPVPNHLRNAPTKLMSELGVGEGYRYAHDEDGAFAAGENYFPEVLQHSRIYQPTARGFEKRIRDKLAHLDALNQQSEGHHHHHH | soluble |
| MSLSFTVAVKEEILGQHHLSRHELSAIIKMSGSIGLSTSGLTLSVVTENAKLARHLYESFLHFYEIKSEIRHHQRSNLRKNRVYTVFTDEKVQDLLSDLHLADSFFGLETGIDEAILSDEEAGRAYLCGAFLANGSIRDPESGKYQLEISSVYLDHAQGIASLLQQFLLDAKVLERKKGAVTYLQRAEDIMDFLIVIGAMQARDDFERVKILRETRNDLNRANNAETANIARTVSASMKTINNISKIKDIMGLENLPVDLQEVAQLRIQHPDYSIQQLADSLSTPLTKSGVNHRLRKINKIADELEGHHHHHH | soluble |
| MSLSGFDADAIDRTTAADLAEVGSDKWTRYPGCIGAFIAEMDYGLAPCIQQAIDSACDHCKLGYIPEPWKRRVAEACAGWQKSHYGWDVDPDIIRVVPDVLEAYEIFLRELVGAGNAVVVPTPAYMPFLSVPKLYDVDVIEIEMLQGTDETTGEREWLFDFNAIERAFAAGCHAFVLCNPHNPIGKVLTLAEEQRLCELAERYDVRIFNDEIHAPFVFEGRHIPYPTISKAAARQSMTATSASKSFNIPGTKCAQVLLTNPADREMWAERAEWSEHQTATIGAIATTTAYNEGDPWFQDALSYVRRNLGLFDKQMRTRFSGVGYIRPRGTYIAWLDFGPLGIDDPAAYFLEKAKVALTDGRSCGRAGAGCVRVNMAMPYPLLVDCLNRMHDALQADGEGHHHHHH | soluble |
| MSLSGKNNIELDSWKKAINVISKNMDNGRIGIVQGPPGTGKTTIYANAFSRYFDKLGDGNIIVYIAPTNELVYDMFKKVGSEYAKRGAIDRISHEVRVYGSIFDQDPSIRSIREPPSMETKIVLMTNYQRLYPGNNRFNYNVMIDEASKSPLHTAFIGLANQLAKDELDGSISIVGDPMQAISLGPYQGSARRMLIMSYLLAPMLNHSSRDLNDRELLAEAKRSAIRGSSFEFLEVTLRMPSPSEEAISKGFYDNDLRAYRSASQILHSNYEANKLRELATEKEQMRKITEKVEELISTGRCILYERVNEKKSYDSNYYRKYGLTYDPTRAELGIETAIALAAGTGKHTTVITTYVDQQIQMDLLMRRKYGYILEKYGIRDQISFSTTQSFLGAEDDNIVAVLGKEYSISTYTQNYSTSTYNEGDPSTIYFNEPEVLNVQLSRHKMLLAIIGNLSILASQAAEGHHHHHH | not soluble |
| MSLSHIRPDFPEPYGLPVDGLRGKTSIFSHPVYLFLREFSLQDSRGGSLSKKAESLSSGKITIGTKEKVIIINELRQCHPLSQLLVIADLPRSTFYYHVKRLNAPDPYQLVKQVILRIYHQHKGRYGYRRIRLACRNESILLNGKTIRKLMKELGISSLIRRKKYRTYRGEQGRTCNNLLKRQFYADRPNQKWVTDVTEFKVDGRKLYLSPIMDLYNGEIVSYNLTERPLASMVKSMLLDAVEQLNKDDKPLLHSDQGWQYQMPRWQRWLSDNGITQSMSRRGNCLDNAAMESFFSTLKEGHHHHHH | not soluble |
| MSLSIFSHFQERFEATRQEEYSLQEYLDLCKQDKTAYASAAERLLMAIGEPELLDTSVDSRLSRIFSNKVIRRYPAFADFHGMEECIDQIVAFFRHAAQGLEEKKQILYLLGPVGGGKSSLAEKLKQLMEKVPFYAIKGSPVFESPLGLFNPDEDGAILEEDYGIPRRYLRSIMSPWATKRLNEFGGDISQFRVVKLYPSILNQIAIAKTEPGDENNQDISALVGKVDIRKLEEYPQNDADAYSYSGALCRANQGLMEFVEMFKAPIKVLHPLLTATQEGNYNSTEGLGALPYSGIILAHSNESEWHSFRNNKNNEAFIDRIYIVKVPYCLRVADEIKIYDKLLVNSSLAHAHCAPDTLKMLSQFSVLSRLKEPENSNIYSKMRVYDGENLKDTDPKAKSIQEYRDSAGVDEGMAGLSTRFAFKILSKVFNFDPHEVAANPVHLLYVLEQQIEQEQFQPETRERYLRFIKEYLAPRYVEFIGKEIQTAYLESYSEYGQNIFDRYVLYADFWIQDQEYRDPETGEILNRAALNEELEKIEKPAGISNEGHHHHHH | not soluble |
| MSLSIQRILFPTDFSDGARRAFPQAAHLADWHDAGLHILNVTGRHRHDHEETTANFPIATDTLTKWLRRPEKSVRGANWPDLEALPITQEQVESAEPAERILAYAEDEAIDLIVMGTHGRRGVDRMLFGSVTEEVVRKAPCPTLTVRADADVAPDQAVRRVLAPVDFSDASRSAVRHAKEIALTYGAEIDLLHVVEEPFYPPAYGLGETGFPTDKVIGSVEDELADLARSEVGYEHVMIEARTGEPSREILNYIDENEVDLTVIASHGRTGLDRMLIGSVAERVVRQSPTPVFVAKPDRAALVSSDAAEGHHHHHH | not soluble |
| MSLSKENIRKTSKIETKSKEFSRQNMIDLFDLYFYEDCPYQDESAELLRLVGRGKMRIVSRENGTSACAGDLAGYYEKKGLKVLNYFRDGENFKPGDAIFEAEGDIKLIFRFWRVSQTFLTMMCAIATKTASMVSEARRTNPDIIIATSRKTHPGARIFELKAVRAGGGDIHRNSLSDSIQISQNHLEVAGELGKLRAMKKIEIEPRSREEAFKYAEMSDIMLLDHLSPEELRELGPELKELNPELELAVGGIEAKRIPEYAPFVDIIVISAPYYANPLDFTTKIEREGHHHHHH | soluble |
| MSLSKMEEILVIGVNTRPVVESAFRLGYRVYSAGYYCTADFKHYTERRCILRERSGESCGRFHENFSQEKLLEAASDFIERADGIIPLTGAPPLPGEKVLGNSRVDHVEDKYRLYRRIRNSYPTPETHLISDPAEAMEIVAAGEKKYIAKPVSGAGGFGVTEFREGDGEFLLQEYIEGVPVSASVLSTGEDAITVLTSRQIIDRGVPGFEGQFVYAGNMTPGPSGEIEDLASDLILDLSLRGSNGVDLIMRDSELYVIEVNPRIQGTFECAEASLGINMVDAHIRACMGELIEKPDPVSYAVKRILYAPARCRVGEIKTMGVHDLPVPGTIIEEGEPLLTVLASHNSMEAAENLASNICSRVKKELHYLRCPPPRPQGVEGHHHHHH | not soluble |
| MSLSKYKPTWMIDAIYKITPAQLKKLGIKAVLTDLDNTLIAWNNPDGTEELKTWLLEMKNAGITVLVVSNNKDSRIKRVVEKFDLDYVARALKPTARGFKLAEKKLGLKPSEMLMVGDQIMTDIRGANAAGIRNVLVQPIVDTDGWNTRINRFFERKIMKYLSKKHPEMTWRGGLEEGHHHHHH | soluble |
| MSLSLDFSDNTFQPLAARMRPENLAQYIGQQHLLAAGKPLPRAIEAGHLHSMILWGPPGTGKTTLAEVIARYANADVERISAVTSGVKEIREAIERARQNRNAGRRTILFVDEVHRFNKSQQDAFLPHIEDGTITFIGATTENPSFELNSALLSRARVYLLKSLSTEDIEQVLTQAMEDKTRGYGGQDIVLPDETRRAIAELVNGDARRALNTLEMMADMAEVDDSGKRVLKPELLTEIAGERSARFDNKGDRFYDLISALHKSVRGSAPDAALYWYARIITAGGDPLYVARRCLAIASEDVGNADPRAMQVAIAAWDCFTRVGPAEGERAIAQAIVYLACAPKSNAVYTAFKAALADARERPDYDVPVHLRNAPTKLMKEMGYGQEYRYAHDEANAYAAGEVYFPPEIAQTRYYFPTNRGLEGKIGEKLAWLAEQDQNEGHHHHHH | soluble |
| MSLSLKIALISQNENLLNLFPKLALEKNFIPITKTASLTRASKIAFGLQDEVDAIISRGATSDYIKKSVSIPSISIKVTRFDTMRAVYNAKRFGNELALIAYKHSIVDKHEIEAMLGVKIKEFLFSSEDEITTLISKVKTENIKIVVSGKTVTDEAIKQGLYGETINSEGHHHHHH | not soluble |
